Laboratory results taken from IntAct's records for PubMed 36127429.

B1: Protein SHMOOSE (Homo sapiens), C0HM83 (parent)
chain: MPPCLTTWLSQLLKDNSYPLVLGPKNFGATPNKSNNHAHYYNHPNPDFPNSPHPYHPR
partner: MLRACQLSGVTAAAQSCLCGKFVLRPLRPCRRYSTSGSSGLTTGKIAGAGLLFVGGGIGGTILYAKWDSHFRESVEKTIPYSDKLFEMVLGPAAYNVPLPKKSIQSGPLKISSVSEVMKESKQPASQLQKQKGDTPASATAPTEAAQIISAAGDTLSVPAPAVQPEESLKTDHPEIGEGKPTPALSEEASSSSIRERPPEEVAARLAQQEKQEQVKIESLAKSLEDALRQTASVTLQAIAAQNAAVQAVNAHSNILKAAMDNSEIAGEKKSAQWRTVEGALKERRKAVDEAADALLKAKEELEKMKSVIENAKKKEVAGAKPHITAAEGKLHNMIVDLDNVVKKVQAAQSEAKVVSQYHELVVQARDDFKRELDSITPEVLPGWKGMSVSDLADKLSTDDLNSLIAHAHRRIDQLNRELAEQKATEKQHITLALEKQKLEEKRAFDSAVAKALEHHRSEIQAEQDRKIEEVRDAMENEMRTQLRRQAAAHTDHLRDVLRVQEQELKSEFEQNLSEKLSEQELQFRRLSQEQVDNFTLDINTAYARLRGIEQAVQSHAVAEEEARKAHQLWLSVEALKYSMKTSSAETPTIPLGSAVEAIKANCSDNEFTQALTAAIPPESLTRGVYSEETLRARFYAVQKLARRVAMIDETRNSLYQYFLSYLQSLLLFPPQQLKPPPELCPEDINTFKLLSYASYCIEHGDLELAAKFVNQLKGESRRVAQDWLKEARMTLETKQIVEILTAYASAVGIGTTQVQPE

Variants of: B1
Details: with mic60_human IMMT

Row | Variant | effect of a mutation on the interaction
1 | MPPCLTTWLSQLLKDNSYPLVLGPKNFGATPNKSNNHAHYYNHPNPNFPNSPHPYHPR | with no effect
